The assay concerns the target T1, 人hCD2(His标签)蛋白 (human, UniProt P06729 25-209).
T1 construct: not shown: His tag
T1 sequence: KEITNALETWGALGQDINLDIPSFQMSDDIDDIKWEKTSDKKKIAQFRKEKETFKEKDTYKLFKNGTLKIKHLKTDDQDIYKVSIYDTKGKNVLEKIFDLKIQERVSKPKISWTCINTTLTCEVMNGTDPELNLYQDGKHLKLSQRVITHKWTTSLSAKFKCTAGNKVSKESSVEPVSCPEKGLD
The experiment in a line: ELISA, plate coated with hCD2-His at 2 μg/mL. In general terms: An ELISA detects its analyte on a solid surface through an enzyme-linked reagent.

B1: 单克隆抗体8G1 (antibody, V domains shown)
VH: EVLLVESGGGLVKPGGSLKLSCAASGFTFSSYAMSWVRQTPEKRLEWVATITNGGSYNYYPDSVKGRFTISRDNAKNTLYLQMSSLRSEDTAIYYCARSNPYYFDYWGQGTTLTVSP
VL: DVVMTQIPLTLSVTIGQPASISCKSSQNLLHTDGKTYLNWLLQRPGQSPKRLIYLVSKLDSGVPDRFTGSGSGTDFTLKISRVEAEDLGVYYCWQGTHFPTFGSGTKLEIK
On to B1, for which the binding result was “no binding (tested: 0.1μg/mL 8G1)”.

For the origin of these results see patent CN115073591A (INST MILITARY MEDICINE ACADEMY MILITARY SCIENCES PLA, dated 2022).
